Reference: patent US20120244166A1 (published 2012)
Positions count from the first letter of the chain named. In names and notes the source's numbering stands.

B1: 2F5 L100AS-V100DS (antibody, V domains shown)
VH: RITLKESGPPLVKPTQTLTLTCSFSGFSLSDFGVGVGWIRQPPGKALEWLAIIYSDDDKRYSPSLNTRLTITKDTSKNQVVLVMTRVSPVDTATYFCAHRRGPTTSFGSPIARGPVNAMDVWGQGITVTISS
VL: ALQLTQSPSSLSASVGDRITITCRASQGVTSALAWYRQKPGSPPQLLIYDASSLESGVPSRFSGSGSGTEFTLTISTLRPEDFATYYCQQLHFYPHTFGGGTRVDVRR
B2: 2F5 F100BW (antibody, V domains shown)
VH: B1 VH with S106L, F107W, S109V
VL: B1 VL
B3: 2F5 F100BS-I100FS (antibody, V domains shown)
VH: B1 VH with S106L, F107S, S109V, I111S
VL: B1 VL
B4: 2F5 F100BS (antibody, V domains shown)
VH: B1 VH with S106L, F107S, S109V
VL: B1 VL
B5: 2F5 V100DW (antibody, V domains shown)
VH: B1 VH with S106L, S109W
VL: B1 VL
B6: 2F5 L100AS-F100BS (antibody, V domains shown)
VH: B1 VH with F107S, S109V
VL: B1 VL
B7: 2F5 L100AS (antibody, V domains shown)
VH: B1 VH with S109V
VL: B1 VL
B8: 2F5 L100AW (antibody, V domains shown)
VH: B1 VH with S106W, S109V
VL: B1 VL
B9: 2F5 L100AW-V100DW (antibody, V domains shown)
VH: B1 VH with S106W, S109W
VL: B1 VL
B10: 2F5 V100DS (antibody, V domains shown)
VH: B1 VH with S106L
VL: B1 VL
B11: 2F5 (antibody, V domains shown)
VH: B1 VH with S106L, S109V
VL: B1 VL
B12: 2F5 I100FS (antibody, V domains shown)
VH: B1 VH with S106L, S109V, I111S
VL: B1 VL
B13: 2 (Heavy chain: G54S) (antibody, V domains shown)
VH: QVQLVQSGGQMKKPGESMRISCRASGYEFIDCTLNWIRLAPGKRPEWMGWLKPRGGAVNYARPLQGRVTMTRDVYSDTAFLELRSLTVDDTAVYFCTRGKNCDYNWDFEHWGRGTPVIVSS
VL: EIVLTQSPGTLSLSPGETAIISCRTSQYGSLAWYQQRPGQAPRLVIYSGSTRAAGIPDRFSGSRWGPDYNLTISNLESGDFGVYYCQQYEFFGQGTKVQVDI
B14: C32AC98S (antibody, V domains shown)
VH: B13 VH with C32S, C102A
VL: B13 VL
B15: Insertion-AA (antibody, V domains shown)
VH: B13 VH
VL: EIVLTQSPGTLSLSPGETAIISCRTSQYGSAALAWYQQRPGQAPRLVIYSGSTRAAGIPDRFSGSRWGPDYNLTISNLESGDFGVYYCQQYEFFGQGTKVQVDI

What follows are binders tested against gp41 MPER peptide (residues 657 to 669 of gp41 linked to a C-terminal C9 tag) (assay: SPR).

| Binder | Kd [nM] |
| --- | --- |
| B1 | 36.7 |
| B2 | 11.2 |
| B3 | 46.9 |
| B4 | 11.9 |
| B5 | 11.9 |
| B6 | 10.9 |
| B7 | 10.8 |
| B8 | 11.3 |
| B9 | 12.8 |
| B10 | 14.3 |
| B11 | 9.5 |
| B12 | 27.3 |

The binders below were run against Du156.12 (assay: ELISA).

| Binder | EC50 [µg/mL] |
| --- | --- |
| B13 | 0.072 |
| B14 | 0.048 |
| B15 | 2.02 |
